According to patent US20230151068A1:

biological target: biotinylated His-Avi-TEAD (194-411) (UniProt P28347); assay: SSM screen, enrichment after two rounds of sorting

Going from GSPDEYKERAKECCKKGDIQCCLRYFEESGDPNVMLICLFCP (designed binder) [I05K variant of SEQ ID NO: 1] to GSPSEYIERAKECCKKGDIQCCLRYFEESGDPNVMLICLFCP (designed binder) [D02S variant of SEQ ID NO: 1], the enrichment score rises from -1.5 to -1.01.

Going from GSPDEYIETAKECCKKGDIQCCLRYFEESGDPNVMLICLFCP (designed binder) [R07T variant of SEQ ID NO: 1] to GSPDEYISRAKECCKKGDIQCCLRYFEESGDPNVMLICLFCP (designed binder) [E06S variant of SEQ ID NO: 1], the enrichment score rises from -4.07 to -1.09.

Going from GSPDEYNERAKECCKKGDIQCCLRYFEESGDPNVMLICLFCP (designed binder) [I05N variant of SEQ ID NO: 1] to GSPDEQIERAKECCKKGDIQCCLRYFEESGDPNVMLICLFCP (designed binder) [Y04Q variant of SEQ ID NO: 1], the enrichment score rises from -1.34 to 0.29.

Going from GSPDEMIERAKECCKKGDIQCCLRYFEESGDPNVMLICLFCP (designed binder) [Y04M variant of SEQ ID NO: 1] to GSPDEYRERAKECCKKGDIQCCLRYFEESGDPNVMLICLFCP (designed binder) [I05R variant of SEQ ID NO: 1], the enrichment score falls from -0.68 to -3.27.

Compared with GSPDEYMERAKECCKKGDIQCCLRYFEESGDPNVMLICLFCP (designed binder) [I05M variant of SEQ ID NO: 1], GSPDEYINRAKECCKKGDIQCCLRYFEESGDPNVMLICLFCP (designed binder) [E06N variant of SEQ ID NO: 1] is higher in enrichment score: -1.87 for the first, -0.82 for the second.

First: GSPDEYIEMAKECCKKGDIQCCLRYFEESGDPNVMLICLFCP (designed binder) [R07M variant of SEQ ID NO: 1]
Second: GSPNEYIERAKECCKKGDIQCCLRYFEESGDPNVMLICLFCP (designed binder) [D02N variant of SEQ ID NO: 1]
The enrichment score of the first is lower: -1.06 for the first, -0.16 for the second.

First: GSPDETIERAKECCKKGDIQCCLRYFEESGDPNVMLICLFCP (designed binder) [Y04T variant of SEQ ID NO: 1]
Second: GSPDMYIERAKECCKKGDIQCCLRYFEESGDPNVMLICLFCP (designed binder) [E03M variant of SEQ ID NO: 1]
The enrichment score of the first is lower: -0.87 for the first, 2.57 for the second.

First: GSPDEYIERQKECCKKGDIQCCLRYFEESGDPNVMLICLFCP (designed binder) [A08Q variant of SEQ ID NO: 1]
Second: GSNDEYIERAKECCKKGDIQCCLRYFEESGDPNVMLICLFCP (designed binder) [P01N variant of SEQ ID NO: 1]
The enrichment score of the first is lower: -6 for the first, -0.49 for the second.

Compared with GSPDEYTERAKECCKKGDIQCCLRYFEESGDPNVMLICLFCP (designed binder) [I05T variant of SEQ ID NO: 1], GSPDEYIKRAKECCKKGDIQCCLRYFEESGDPNVMLICLFCP (designed binder) [E06K variant of SEQ ID NO: 1] is higher in enrichment score: -1.77 for the first, -1.13 for the second.

Going from GSPDQYIERAKECCKKGDIQCCLRYFEESGDPNVMLICLFCP (designed binder) [E03Q variant of SEQ ID NO: 1] to GSQDEYIERAKECCKKGDIQCCLRYFEESGDPNVMLICLFCP (designed binder) [P01Q variant of SEQ ID NO: 1], the enrichment score rises from -1.35 to -0.84.

First: GSPDEYIERAQECCKKGDIQCCLRYFEESGDPNVMLICLFCP (designed binder) [K09Q variant of SEQ ID NO: 1]
Second: GSPDTYIERAKECCKKGDIQCCLRYFEESGDPNVMLICLFCP (designed binder) [E03T variant of SEQ ID NO: 1]
The enrichment score of the first is lower: 1.1 for the first, 1.19 for the second.

Compared with GSPDEYIERAMECCKKGDIQCCLRYFEESGDPNVMLICLFCP (designed binder) [K09M variant of SEQ ID NO: 1], GSPDEYSERAKECCKKGDIQCCLRYFEESGDPNVMLICLFCP (designed binder) [I05S variant of SEQ ID NO: 1] is higher in enrichment score: -3.56 for the first, -2.04 for the second.

Compared with GSPREYIERAKECCKKGDIQCCLRYFEESGDPNVMLICLFCP (designed binder) [D02R variant of SEQ ID NO: 1], GSPDEYIERKKECCKKGDIQCCLRYFEESGDPNVMLICLFCP (designed binder) [A08K variant of SEQ ID NO: 1] is higher in enrichment score: -7.12 for the first, -4.73 for the second.

First: GSPDESIERAKECCKKGDIQCCLRYFEESGDPNVMLICLFCP (designed binder) [Y04S variant of SEQ ID NO: 1]
Second: GSSDEYIERAKECCKKGDIQCCLRYFEESGDPNVMLICLFCP (designed binder) [P01S variant of SEQ ID NO: 1]
The enrichment score of the first is lower: -0.74 for the first, 0.13 for the second.

Going from GSMDEYIERAKECCKKGDIQCCLRYFEESGDPNVMLICLFCP (designed binder) [P01M variant of SEQ ID NO: 1] to GSPDEYIERAKMCCKKGDIQCCLRYFEESGDPNVMLICLFCP (designed binder) [E10M variant of SEQ ID NO: 1], the enrichment score rises from -1.02 to -0.34.

Going from GSPDEYIERNKECCKKGDIQCCLRYFEESGDPNVMLICLFCP (designed binder) [A08N variant of SEQ ID NO: 1] to GSPMEYIERAKECCKKGDIQCCLRYFEESGDPNVMLICLFCP (designed binder) [D02M variant of SEQ ID NO: 1], the enrichment score rises from -9.2 to -1.86.

Compared with GSPDEYIERAKQCCKKGDIQCCLRYFEESGDPNVMLICLFCP (designed binder) [E10Q variant of SEQ ID NO: 1], GSPDEYIESAKECCKKGDIQCCLRYFEESGDPNVMLICLFCP (designed binder) [R07S variant of SEQ ID NO: 1] is higher in enrichment score: -1.94 for the first, 0.31 for the second.

Compared with GSPDEYIERAKNCCKKGDIQCCLRYFEESGDPNVMLICLFCP (designed binder) [E10N variant of SEQ ID NO: 1], GSTDEYIERAKECCKKGDIQCCLRYFEESGDPNVMLICLFCP (designed binder) [P01T variant of SEQ ID NO: 1] is lower in enrichment score: -0.45 for the first, -0.57 for the second.

Compared with GSRDEYIERAKECCKKGDIQCCLRYFEESGDPNVMLICLFCP (designed binder) [P01R variant of SEQ ID NO: 1], GSPDEYITRAKECCKKGDIQCCLRYFEESGDPNVMLICLFCP (designed binder) [E06T variant of SEQ ID NO: 1] is higher in enrichment score: -2.1 for the first, -0.92 for the second.

First: GSPDEYIERRKECCKKGDIQCCLRYFEESGDPNVMLICLFCP (designed binder) [A08R variant of SEQ ID NO: 1]
Second: GSPDENIERAKECCKKGDIQCCLRYFEESGDPNVMLICLFCP (designed binder) [Y04N variant of SEQ ID NO: 1]
The enrichment score of the first is lower: -5.84 for the first, 0.04 for the second.

First: GSPDEYIEQAKECCKKGDIQCCLRYFEESGDPNVMLICLFCP (designed binder) [R07Q variant of SEQ ID NO: 1]
Second: GSPDEYIERAKRCCKKGDIQCCLRYFEESGDPNVMLICLFCP (designed binder) [E10R variant of SEQ ID NO: 1]
The enrichment score of the first is higher: -0.48 for the first, -2.84 for the second.

Going from GSPDEYQERAKECCKKGDIQCCLRYFEESGDPNVMLICLFCP (designed binder) [I05Q variant of SEQ ID NO: 1] to GSPDEYIERAKSCCKKGDIQCCLRYFEESGDPNVMLICLFCP (designed binder) [E10S variant of SEQ ID NO: 1], the enrichment score falls from -1.23 to -2.47.

Compared with GSPDEYIERASECCKKGDIQCCLRYFEESGDPNVMLICLFCP (designed binder) [K09S variant of SEQ ID NO: 1], GSPDERIERAKECCKKGDIQCCLRYFEESGDPNVMLICLFCP (designed binder) [Y04R variant of SEQ ID NO: 1] is lower in enrichment score: -0.91 for the first, -0.94 for the second.

First: GSPDEYIMRAKECCKKGDIQCCLRYFEESGDPNVMLICLFCP (designed binder) [E06M variant of SEQ ID NO: 1]
Second: GSPTEYIERAKECCKKGDIQCCLRYFEESGDPNVMLICLFCP (designed binder) [D02T variant of SEQ ID NO: 1]
The enrichment score of the first is lower: -2.04 for the first, -0.52 for the second.

Compared with GSPDEYIQRAKECCKKGDIQCCLRYFEESGDPNVMLICLFCP (designed binder) [E06Q variant of SEQ ID NO: 1], GSPDEYIERSKECCKKGDIQCCLRYFEESGDPNVMLICLFCP (designed binder) [A08S variant of SEQ ID NO: 1] is lower in enrichment score: -2.41 for the first, -2.79 for the second.

Going from GSPDEYIERAKKCCKKGDIQCCLRYFEESGDPNVMLICLFCP (designed binder) [E10K variant of SEQ ID NO: 1] to GSPDEYIRRAKECCKKGDIQCCLRYFEESGDPNVMLICLFCP (designed binder) [E06R variant of SEQ ID NO: 1], the enrichment score rises from -2.3 to -1.78.

First: GSPDEYIERARECCKKGDIQCCLRYFEESGDPNVMLICLFCP (designed binder) [K09R variant of SEQ ID NO: 1]
Second: GSPDEYIENAKECCKKGDIQCCLRYFEESGDPNVMLICLFCP (designed binder) [R07N variant of SEQ ID NO: 1]
The enrichment score of the first is lower: -1.3 for the first, 0.34 for the second.

First: GSPDSYIERAKECCKKGDIQCCLRYFEESGDPNVMLICLFCP (designed binder) [E03S variant of SEQ ID NO: 1]
Second: GSPDEYIEKAKECCKKGDIQCCLRYFEESGDPNVMLICLFCP (designed binder) [R07K variant of SEQ ID NO: 1]
The enrichment score of the first is lower: -0.41 for the first, 0.47 for the second.

First: GSPDRYIERAKECCKKGDIQCCLRYFEESGDPNVMLICLFCP (designed binder) [E03R variant of SEQ ID NO: 1]
Second: GSPDEYIERMKECCKKGDIQCCLRYFEESGDPNVMLICLFCP (designed binder) [A08M variant of SEQ ID NO: 1]
The enrichment score of the first is higher: -1.81 for the first, -10.1 for the second.

First: GSPDEYIERANECCKKGDIQCCLRYFEESGDPNVMLICLFCP (designed binder) [K09N variant of SEQ ID NO: 1]
Second: GSPQEYIERAKECCKKGDIQCCLRYFEESGDPNVMLICLFCP (designed binder) [D02Q variant of SEQ ID NO: 1]
The enrichment score of the first is higher: 3.31 for the first, -0.2 for the second.

Going from GSPDNYIERAKECCKKGDIQCCLRYFEESGDPNVMLICLFCP (designed binder) [E03N variant of SEQ ID NO: 1] to GSPDEYIERTKECCKKGDIQCCLRYFEESGDPNVMLICLFCP (designed binder) [A08T variant of SEQ ID NO: 1], the enrichment score falls from 0.58 to -3.84.
